# T1: GFP-GST-Rad54 S816DS817D (Saccharomyces cerevisiae, UniProt P32863 1-898, S816D | S817D)
# T1 sequence (looked up): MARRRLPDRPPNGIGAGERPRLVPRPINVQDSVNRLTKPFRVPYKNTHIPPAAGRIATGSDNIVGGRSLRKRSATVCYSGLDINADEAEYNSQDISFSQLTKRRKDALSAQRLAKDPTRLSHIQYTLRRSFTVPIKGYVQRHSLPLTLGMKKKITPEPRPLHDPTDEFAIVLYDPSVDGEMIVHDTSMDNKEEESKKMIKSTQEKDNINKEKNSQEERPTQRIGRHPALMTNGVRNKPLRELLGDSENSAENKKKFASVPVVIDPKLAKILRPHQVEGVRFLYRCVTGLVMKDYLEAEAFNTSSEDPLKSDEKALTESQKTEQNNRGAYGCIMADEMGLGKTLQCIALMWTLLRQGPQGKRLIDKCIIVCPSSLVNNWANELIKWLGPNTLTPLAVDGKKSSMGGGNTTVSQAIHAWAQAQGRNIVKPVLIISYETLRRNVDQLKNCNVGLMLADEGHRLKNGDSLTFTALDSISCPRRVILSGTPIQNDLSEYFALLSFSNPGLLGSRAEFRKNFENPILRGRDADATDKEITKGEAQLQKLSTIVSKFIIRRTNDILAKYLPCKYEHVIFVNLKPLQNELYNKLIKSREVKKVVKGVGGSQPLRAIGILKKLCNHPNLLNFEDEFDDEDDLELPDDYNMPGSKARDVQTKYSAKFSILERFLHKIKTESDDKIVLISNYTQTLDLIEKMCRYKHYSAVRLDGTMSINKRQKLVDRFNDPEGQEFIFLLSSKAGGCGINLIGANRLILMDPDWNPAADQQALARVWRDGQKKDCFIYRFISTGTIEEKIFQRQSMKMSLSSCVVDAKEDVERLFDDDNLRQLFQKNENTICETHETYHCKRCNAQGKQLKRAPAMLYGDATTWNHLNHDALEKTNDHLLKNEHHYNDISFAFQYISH
# B1: GFP-GST-Rad54 (enzyme, Saccharomyces cerevisiae, UniProt P32863 1-898, looked up)
# chain: MARRRLPDRPPNGIGAGERPRLVPRPINVQDSVNRLTKPFRVPYKNTHIPPAAGRIATGSDNIVGGRSLRKRSATVCYSGLDINADEAEYNSQDISFSQLTKRRKDALSAQRLAKDPTRLSHIQYTLRRSFTVPIKGYVQRHSLPLTLGMKKKITPEPRPLHDPTDEFAIVLYDPSVDGEMIVHDTSMDNKEEESKKMIKSTQEKDNINKEKNSQEERPTQRIGRHPALMTNGVRNKPLRELLGDSENSAENKKKFASVPVVIDPKLAKILRPHQVEGVRFLYRCVTGLVMKDYLEAEAFNTSSEDPLKSDEKALTESQKTEQNNRGAYGCIMADEMGLGKTLQCIALMWTLLRQGPQGKRLIDKCIIVCPSSLVNNWANELIKWLGPNTLTPLAVDGKKSSMGGGNTTVSQAIHAWAQAQGRNIVKPVLIISYETLRRNVDQLKNCNVGLMLADEGHRLKNGDSLTFTALDSISCPRRVILSGTPIQNDLSEYFALLSFSNPGLLGSRAEFRKNFENPILRGRDADATDKEITKGEAQLQKLSTIVSKFIIRRTNDILAKYLPCKYEHVIFVNLKPLQNELYNKLIKSREVKKVVKGVGGSQPLRAIGILKKLCNHPNLLNFEDEFDDEDDLELPDDYNMPGSKARDVQTKYSAKFSILERFLHKIKTESDDKIVLISNYTQTLDLIEKMCRYKHYSAVRLDGTMSINKRQKLVDRFNDPEGQEFIFLLSSKAGGCGINLIGANRLILMDPDWNPAADQQALARVWRDGQKKDCFIYRFISTGTIEEKIFQRQSMKMSLSSCVVDAKEDVERLFSSDNLRQLFQKNENTICETHETYHCKRCNAQGKQLKRAPAMLYGDATTWNHLNHDALEKTNDHLLKNEHHYNDISFAFQYISH
# B2: GFP-GST-Rad54 S816AS817A (enzyme, Saccharomyces cerevisiae, UniProt P32863 1-898, looked up)
# chain: MARRRLPDRPPNGIGAGERPRLVPRPINVQDSVNRLTKPFRVPYKNTHIPPAAGRIATGSDNIVGGRSLRKRSATVCYSGLDINADEAEYNSQDISFSQLTKRRKDALSAQRLAKDPTRLSHIQYTLRRSFTVPIKGYVQRHSLPLTLGMKKKITPEPRPLHDPTDEFAIVLYDPSVDGEMIVHDTSMDNKEEESKKMIKSTQEKDNINKEKNSQEERPTQRIGRHPALMTNGVRNKPLRELLGDSENSAENKKKFASVPVVIDPKLAKILRPHQVEGVRFLYRCVTGLVMKDYLEAEAFNTSSEDPLKSDEKALTESQKTEQNNRGAYGCIMADEMGLGKTLQCIALMWTLLRQGPQGKRLIDKCIIVCPSSLVNNWANELIKWLGPNTLTPLAVDGKKSSMGGGNTTVSQAIHAWAQAQGRNIVKPVLIISYETLRRNVDQLKNCNVGLMLADEGHRLKNGDSLTFTALDSISCPRRVILSGTPIQNDLSEYFALLSFSNPGLLGSRAEFRKNFENPILRGRDADATDKEITKGEAQLQKLSTIVSKFIIRRTNDILAKYLPCKYEHVIFVNLKPLQNELYNKLIKSREVKKVVKGVGGSQPLRAIGILKKLCNHPNLLNFEDEFDDEDDLELPDDYNMPGSKARDVQTKYSAKFSILERFLHKIKTESDDKIVLISNYTQTLDLIEKMCRYKHYSAVRLDGTMSINKRQKLVDRFNDPEGQEFIFLLSSKAGGCGINLIGANRLILMDPDWNPAADQQALARVWRDGQKKDCFIYRFISTGTIEEKIFQRQSMKMSLSSCVVDAKEDVERLFAADNLRQLFQKNENTICETHETYHCKRCNAQGKQLKRAPAMLYGDATTWNHLNHDALEKTNDHLLKNEHHYNDISFAFQYISH
# B3: Rad51 (natural protein, UniProt P25454 1-400, looked up)
# chain: MSQVQEQHISESQLQYGNGSLMSTVPADLSQSVVDGNGNGSSEDIEATNGSGDGGGLQEQAEAQGEMEDEAYDEAALGSFVPIEKLQVNGITMADVKKLRESGLHTAEAVAYAPRKDLLEIKGISEAKADKLLNEAARLVPMGFVTAADFHMRRSELICLTTGSKNLDTLLGGGVETGSITELFGEFRTGKSQLCHTLAVTCQIPLDIGGGEGKCLYIDTEGTFRPVRLVSIAQRFGLDPDDALNNVAYARAYNADHQLRLLDAAAQMMSESRFSLIVVDSVMALYRTDFSGRGELSARQMHLAKFMRALQRLADQFGVAVVVTNQVVAQVDGGMAFNPDPKKPIGGNIMAHSSTTRLGFKKGKGCQRLCKVVDSPCLPEAECVFAIYEDGVGDPREEDE
# Assays:
# Assay in all cases: single-molecule DNA curtains
# Rad51 = biological target: B3
# GFP-GST-Rad54 S816DS817D = biological target: T1, GFP-GST-Rad54 S816DS817D
# GFP-GST-Rad54 = biological target: B1
# GFP-GST-Rad54 S816AS817A = biological target: B2
"fold change of Rad54 molecules per PSC, flow off against constant flow (Rad51) [fold]",binding result (GFP-GST-Rad54 S816DS817D),binding result (GFP-GST-Rad54),binding result (GFP-GST-Rad54 S816AS817A),Binder
2,–,–,–,B1
2,–,–,–,B2
–,binds,binds,binds,B3
